US8796201B2 (The Board of Trustees of the Leland Stanford Junior …, priority 2002, dated 2014)

B1: MX PEP: novel recombinant prolyl endopeptidase from Myxococcus xanthus (Genbank AF127082, SEQ ID NO:47) (protein, listed as Myxococcus xanthus)
chain: MSYPATRAEQVVDTLHGVQVADPYRWLEDEKAPEVQTWMTAQNAHAREALAKFPGREALAARFKELFYTDSVSTPSRRNGRFFYVRTHKDKEKAILYWRQGESGQEKVLLDPNGWSKDGTVSLGTWAVSWDGKKVAFAQKPNAADEAVLHVIDVDSGEWSKVDVIEGGKYATPKWTPDSKGFYYEWLPTDPSIKVDERPGYTTIRYHTLGTEPSKDTVVHERTGDPTTFLQSDLSRDGKYLFVYILRGWSENDVYWKRPGEKDFRLLVKGVGAKYEVHAWKDRFYVLTDEGAPRQRVFEVDPAKPARASWKEIVPEDSSASLLSVSIVGGHLSLEYLKDATSEVRVATLKGKPVRTVQLPGVGAASNLMGLEDLDDAYYVFTSFTTPRQIYKTSVSTGKSELWAKVDVPMNPEQYQVEQVFYASKDGTKVPMFVVHRKDLKRDGNAPTLLYGYGGFNVNMEANFRSSILPWLDAGGVYAVANLRGGGEYGKAWHDAGRLDKKQNVFDDFHAAAEYLVQQKYTQPKRLAIYGGSNGGLLVGAAMTQRPELYGAVVCAVPLLDMVRYHLFGSGRTWIPEYGTAEKPEDFKTLHAYSPYHHVRPDVRYPALLMMAADHDDRVDPMHARKFVAAVQNSPGNPATALLRIEANAGHGGADQVAKAIESSVDLYSFLFQVLDVQGAQGGVAAQGR
B2: FM PEP: recombinant prolyl endopeptidase from Flavobacterium meningosepticum (Genbank D10980) (protein)
chain: QNSNVLKYPETKKVSHTDTYFGTQVSDPYRWLEDDRAEDTKAWVQQEVKFTQDYLAQIPFRDQLKKQLMDIWNYEKISAPFKKGKYTYFSKNDGLQAQSVLYRKDAAGKTEVFLDPNKFSEKGTTSLASVSFNKKGTLVAYSISEGGSDWNKIIILDAETKKQLDETLLDVKFSGISWLGDEGFFYSSYDKPKEGSVLSGMTDKHKVYFHKLGTKQSQDELIIGGDKFPRRYIGAYVTDDQRYLVVSAANATNGNELYIKDLKNKTDFIPIITGFDSNVNVADTDGDTLYLFTDKDAPNKRLVKTTIQNPKAETWKDVIAETSEPLEINTGGGYFFATYMKDAIDQVKQYDKNGKLVRAIKLPGSGNASGFGGEKTEKDLYYSFTNYITPPTIFKYNVTTGNSEVYQKPKVKFNPENYVSEQVFYTSSDGTKIPMMISYKKGLKKDGKNPTILYSYGGFNISLQPAFSVVNAIWMENGGIYAVPNIRGGGEYGKKWHDAGTKMQKKNVFNDFIAAGEYLQKNGYTSKEYMALSGRSNGGLLVGATMTMRPDLAKVAFPGVGVLDMLRYNKFTAGAGWAYDYGTAEDSKEMFEYLKSYSPVHNVKAGTCYPSTMVITSDHDDRVVPAHSFKFGSELQAKQSCKNPILIRIETNAGHGAGRSTEQVVAENADLLSFALYEMGIKSLK

Experiments:
[1] = Kinetic analysis with reference substrate Succinyl-Ala-Pro-pNA; type: biochemical; settings: Succinyl-Ala-Pro-p-nitroanilide hydrolysis
Method: Activity Assays. Post-proline cleavage activity was measured using Z-Gly-Pro-p-nitroanilide and Succinyl-Ala-Pro-p-nitroanilide (Bachem, CA). Z-Gly-Pro-pNA was dissolved in a PBS:water:dioxane (8:1.2:0.8) assay mixture. The concentration of Z-Gly-Pro-pNA was varied from 100-600 μM. Although the substrate Z-Gly-Pro-pNA was effective in detecting enzyme activity, its insolubility at higher concentrations precluded kinetic measurements under substrate-saturated conditions. In contrast, Succinyl-Ala-Pro-pNA, had the advantage of high water solubility at all pH values tested, and was therefore a preferred substrate for kinetic studies. […] Reaction mixtures ([…] consisted of 30 μl of 10× pH buffer, final concentration of 0.01 μM enzyme, and Suc-Ala-Pro-pNA to final concentrations between 100 μM to 4 mM.
Kinetic Analysis with Reference Substrates. The activity of each PEP was initially evaluated using the standard chromogenic substrate succinyl-Ala-Pro-pNA. Release of the p-nitroaniline was detected at 410 nm, and kinetic data was fitted to the Michaelis-Menten relationship. Succinyl-Ala-Pro-pNA was selected as a reference substrate instead of the more commonly used Z-Gly-Pro-pNA due to the low solubility of the latter substrate, which necessitated use of co-solvents. The calculated kcat and KM values of FM, MX and SC PEPs for succinyl-Ala-Pro-pNA are tabulated (Table 3). […] The higher specificity of MX can be attributed mainly to its higher affinity for the substrate, as reflected in the KM.

[2] = tested on: PQPQLPYPQPQLP, 33-mer and pepsin-treated gluten; test: Competitive proteolysis in pepsin-treated gluten with pancreatic enzymes and BBM; type: biochemical, wheat; settings: pancreatic enzymes, BBM
Method: FIGS. 13A-13B. […] This complex mixture of substrates was treated under physiological conditions with a mixture of pancreatic enzymes (trypsin, chymotrypsin, carboxypeptidase, elastase), brush border membrane enzymes (derived from rat small intestine) and either (A) FM PEP or (B) MX PEP.
The resulting solution was neutralized using 10 M NaOH and diluted to 10 g/L in a phosphate buffer (40 mM, pH 6.5). […] Prolyl endopeptidase (FM or MX; 1×: 500 mU/ml; 5×: 2.5 U/ml; 10×: 5 U/ml) and rat intestinal brush border surface membranes (BB, 1×: 40 mU/ml, 2×: 80 mU/ml, DPP IV activity) were added to a total volume of 150 μl. The mixture was incubated at 37° C. and […] aliquots were taken at 0, 5, 10, 30 and 60 min and immediately heat deactivated.

[3] = tested on: PQPQLPYPQPQLP; test: Competitive assay of PEP specificity for gliadin peptide versus Suc-Ala-Pro-pNA; type: biochemical, wheat; settings: PQPQLPYPQPQLP vs Suc-Ala-Pro-pNA
Method: Substrate Specificity. In addition to the reference substrates above, enzyme specificity was also evaluated using two immunogenic peptides derived from the sequence of γ-gliadin proteins in gluten. Both peptides were synthesized using solid-phase peptide synthesis. The peptide (SEQ ID NO:4) […] contains the immunodominant γII-epitope, and is resistant to proteolysis by pepsin or any pancreatic enzyme. PEP specificity toward this substrate was assessed in a competitive assay in which 100 μM (SEQ ID NO:4) […] and 100 μM Suc-Ala-Pro-pNA were mixed and reacted with 0.02 μM PEP at 25° C. The initial velocity of Suc-Ala-Pro-pNA cleavage was measured spectrophotometrically, whereas the initial velocity of (SEQ ID NO:4) […] hydrolysis was determined via HPLC. The apparent specificity, kcat/KM, for the hydrolysis of (SEQ ID NO:4) […] could be determined based on the known kcat/KM of the enzyme for Suc-Ala-Pro-pNA and the observed reaction rates of the two substrates. […]
The kcat/KM values of each PEP were determined in an assay mixture containing (SEQ ID NO:4) […] as well as Suc-Ala-Pro-pNA as a competing substrate. The rates of disappearance of both substrates were determined by independent detection methods. The initial rate of disappearance of (SEQ ID NO:4) […] was measured by HPLC, whereas the rate of consumption of Suc-Ala-Pro-pNA was measured spectrophotometrically. […]

Row | Molecule | Kcat [1] [s⁻¹] | Km [1] [µM] | relative rates of proteolysis of PQPQLPYPQPQLP, 33-mer and other gluten peptides [2] | time for breakdown of PQPQLPYPQPQLP and other smaller peptides [2] [min] | higher specificity for the gluten peptide as compared to the chromogenic substrate [3] [fold]
1 | B1 | 51 | 350 | hydrolysis of the 33-mer occurred at a slower rate | 10 | 5
2 | B2 | 33 | 910 | at comparable rates | – | 5
